Source: the supplement of paper PMC10899765

Key:
Conditions in all cases: 20 nM; 72 h
MCF10A [1] = test: percent viability (nuclei count relative to siNT); higher = more viable cells
Procedure: (§1)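 After 72 h, cells were fixed and stained with Hoechst and anti-fibrillarin, and nucleoli per nucleus were counted with CellProfiler. Values are plate-adjusted percent effect for the one-nucleolus and 5+ nucleoli phenotypes, normalised to siNT (0%) and to the positive controls siNOL11 or siKIF11 (100%), as the mean of biological triplicates. Percent viability is the nuclei count relative to siNT.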

MCF10A [2] = test: 5+ nucleoli phenotype percent effect (relative to siNT 0% and siKIF11 100%); higher = more cells with five or more nucleoli
Procedure: as §1

MCF10A [3] = test: one-nucleolus phenotype percent effect (relative to siNT 0% and siNOL11 100%); higher = more cells with one nucleolus (ribosome biogenesis inhibition)
Procedure: as §1

Sequence | percent viability (MCF10A [1]) | 5+ nucleoli phenotype percent effect (MCF10A [2]) | one-nucleolus phenotype percent effect (MCF10A [3])
UGAGGCCCUUGGGGCACAGUGG [hsa-miR-5008-5p] | 22.9% | -8.69% | 6.37%
UGAGGCGGGGGGGCGAGC [hsa-miR-6087] | 53.3% | -13.4% | 15.3%
UGAGGCUAAUGCACUACUUCAC [hsa-miR-3975] | 15.5% | -22.7% | 38.9%
UGAGGCUCUGUUAGCCUUGGCUC [hsa-miR-2467-5p] | 29.8% | -10.9% | 37.5%
UGAGGGACAGAUGCCAGAAGCA [hsa-miR-3126-5p] | 16.2% | -33.3% | 40%
UGAGGGACCCAGGACAGGAGA [hsa-miR-6875-5p] | 29% | -0.911% | 13.7%
UGAGGGAGGAGACUGCA [hsa-miR-4419a] | 7.9% | -18.8% | 18.6%
UGAGGGAGGAGGUUGGGUA [hsa-miR-6133] | 17.2% | -0.793% | 1.81%
UGAGGGAGUAGGAUGUAUGGUU [hsa-miR-4510] | 16.6% | -17.6% | 13.3%
UGAGGGAGUGGAUUGUAUG [hsa-miR-6130] | 16.7% | -15.2% | -1.2%
UGAGGGAGUGGGUGGGAGG [hsa-miR-6127] | 39.8% | -15.1% | 3.31%
UGAGGGAGUUGGGUGUAUA [hsa-miR-6129] | 24.3% | -7.69% | 18.8%
UGAGGGCUCCAGGUGACGGUGG [hsa-miR-4721] | 22% | -20.6% | 27.2%
UGAGGGGCAGAGAGCGAGACUUU [hsa-miR-423-5p] | 41.6% | -10.7% | 13.3%
UGAGGGGCCUCAGACCGAGCUUUU [hsa-miR-3184-5p] | 31.2% | 38.7% | 5.35%
UGAGGGGUUUGGAAUGGGAUGG [hsa-miR-5194] | 14.8% | 21% | 13.7%
UGAGGGUGUCAGCAGGUGACG [hsa-miR-6804-5p] | 11.7% | 0.774% | 19.5%
UGAGGUAGGAGGUUGUAUAGUU [hsa-let-7e-5p] | 23% | 48.7% | -8.3%
UGAGGUAGUAAGUUGUAUUGUU [hsa-miR-98-5p] | 30% | 44.8% | -13%
UGAGGUAGUAGAUUGUAUAGUU [hsa-let-7f-5p] | 123% | 25.3% | -20.6%
UGAGGUAGUAGGUUGUAUAGUU [hsa-let-7a-5p] | 29.1% | 61.1% | -24.4%
UGAGGUAGUAGGUUGUAUGGUU [hsa-let-7c] | 25.9% | 56.3% | -17.3%
UGAGGUAGUAGGUUGUGUGGUU [hsa-let-7b-5p] | 22.8% | 33.9% | -9.82%
UGAGGUAGUAGUUUCUU [hsa-miR-4500] | 89.3% | 43.2% | -31.4%
UGAGGUAGUAGUUUGUACAGUU [hsa-let-7g-5p] | 21.6% | 29% | -16.7%
